Biological target: T1, human RNF130 (GOLIATH) extracellular domain (human, UniProt Q86XS8 28-194, biotin (BirA biotinylation))
T1 construct: RNF130 (GOLIATH), human, extracellular domain (ECD); also called RNF130 ECD; source: Expi293F, purified (Ni-NTA, size-exclusion chromatography), biotinylated with BirA; not shown: AVI, C-terminal, kept
T1 sequence (looked up): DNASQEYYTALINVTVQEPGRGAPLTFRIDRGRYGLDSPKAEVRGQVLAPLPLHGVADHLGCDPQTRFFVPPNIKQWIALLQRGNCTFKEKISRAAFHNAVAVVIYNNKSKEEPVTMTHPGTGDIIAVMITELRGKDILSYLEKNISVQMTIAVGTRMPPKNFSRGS
Assay: SPR; Biacore T100; biotinylated ECD (ligand) captured on a streptavidin (SA) series S chip, ~100-200 RU; non-biotinylated VHH as analyte in HBS-P+ buffer, twofold dilutions from 500 nM (RNF128 E2, RNF130 D1) or 1000 nM (RNF43 C8); injection 60 s at 30 ul/min, dissociation 240 s; regeneration 1 x 10 sec glycine pH 2.5; 1:1 Langmuir model or equilibrium
Settings: both partners purified

B1: RNF130-D1 nanobody (VHH)
VHH: QVQLQESGGGLVQAGGSLRLSCAASGTISFIGYMGWYRQAPGKERELVASIASGTSTYYADSVKGRFTISRDNAKNTVYLQMNSLKPEDTAVYYCAATQYIQDVHRYWGQGTQVTVSS
notes: VHH selected from a synthetic yeast-display nanobody library against the human RNF130 ECD; Non-biotinylated analyte in SPR; source: Expi293F, purified (Ni-NTA, size-exclusion chromatography)
Kd: 6.4 nM

— publication PMC10127277, “Receptor Elimination by E3 Ubiquitin Ligase Recruitment (REULR): A Targeted Protein Degradation Toolbox” (ACS Synthetic Biology, 2023)
